Experimental findings from patent publication US20240358847A1, “TROP2 BINDERS AND CONJUGATES THEREOF” (MERCK SHARP & DOHME LLC, priority 2023, published 2024) are described below.

The nature of data set [1]: Hydrophobic interaction chromatography (HIC). The following applies: butyl HIC column, FIG. 4. The class given is physicochemical. The method, then:
The samples are eluted using an inverted gradient from mobile phase A to 50 mM sodium phosphate, pH 7.0/isopropanol (80:20 v/v) (mobile phase B). The elution is followed by recording the A280 nm as a function of time, the data is then exported and analyzed using the Empower software.
(§1) Developability characteristics for various mutants were performed as in Bailly Et al., Predicting Antibody Developability Profiles Through Early Stage Discovery Screening, MABS 12 (1): e1743053 (2020) (doi: 10.1080/19420862.2020.17430530), which is incorporated herein by reference in its entirety. Various methods used may be found herein under General Methods.

The next data set can be described thus: UP-SEC aggregation. It is filed as physicochemical. The method, then:
as §1
A general note: In gel filtration, larger molecules generally elute earlier.

A short description of the next data set: Non-reducing CE-SDS. It is filed as physicochemical. On the procedure: as §1
Data set [2] is described as follows: Drug antibody ratio (DAR) of ADC by MS / HIC. It is filed as physicochemical. The method, then: A 100 mM solution of dehydroascorbic acid (8.0 equiv.) in water was added slowly and the solution was mixed at room temperature for 4-10 hours or until completion (monitored by reverse phase liquid chromatography (RP-LC) and sodium dodecyl sulfate capillary electrophoresis (CE-SDS)). A 20 mg/mL solution of linker-payload (3.0 equiv.) in DMSO was added and the conjugation was incubated at room temperature for 2 hours (monitored by Quadrupole time-of-flight (QTOF) mass spectrometry (MS)) before addition of L-cysteine (5 equiv., 50 mM in water) to quench residual linker-payload. […] The ADC was brought to the final desired concentration using Sartorius Vivacell 70 Centrifugal Concentrators and Amicon® Ultra Centrifugal Filters.
The control antibody profile is the unconjugated antibody.

In data set [3] the test system is BxPC3 pancreatic cancer cells. The data set is described as follows: In vivo anti-tumor efficacy in BxPC3 mouse model. Further details: species or system BALB/c nude mice. The note with it: dose response, IV single dose, FIG. 14. On the procedure:
Experimental protocol: 7-8 week old female BALB/c nude mice were purchased from Gempharmatech Co., Ltd. ([…]). […] Mouse body weights and tumors were measured twice weekly, and tumor volumes calculated using the formula V=0.5 [a*b2]; where a and b are the long and short diameters of the tumor, respectively. 110 mice were assigned to 11 groups of 10 mice each using a computer-generated randomization procedure to minimize tumor volume variance across groups. Treatments were started when tumors reached an average size of 200 mm^3. PBS and the MMAE conjugates were dosed intravenously (IV) at 2 mg/kg according to Table 25.
Mouse body weights and tumors were measured twice weekly, and tumor volumes calculated using the formula V=0.5 [a*b2]; where a and b are the long and short diameters of the tumor, respectively. 70 mice were assigned to 7 groups of 10 mice each using a computer-generated randomization procedure to minimize tumor volume variance across groups. Treatments were started when tumors reached an average size of 200 mm^3. PBS, a control mAb, and bioconjugate were dosed intravenously (IV) according to Table 26.

A short description of data set [4]: Rat PK of αTROP2 MMAE ADC (tAb, cAb, released MMAE). The class given is in vivo, Wistar Hannover Rats. The following applies: 5 mg/kg IV, up to 14 days, LLOQ […].
Experimental: Plasma concentrations of payload conjugated anti-TROP2 antibody (cAb), total antibody (tAb), and released payload were measured up to 14 days post dose.

B1: αTROP2 (HC:BSM-YTE-S375C) (LC:BSM-Y53D): HC SEQ ID NO: 20 or 90; LC SEQ ID NO: 22 (antibody)
heavy: QVQLLQSGSELKKPGASVKVSCKASGYTFTNYGMNWVRQAPGQGLKWMGWINTYTGEPTYTDDFKGRFSFSLDTSVSQAYLQISSLKAEDTAVYYCARGGFGSSYWYFDVWGQGTLVTVSSASTKGPSVFPLAPSSKSTSGGTAALGCLVKDYFPEPVTVSWNSGALTSGVHTFPAVLQSSGLYSLSSVVTVPSSSLGTQTYICNVNHKPSNTKVDKKVEPKSCDKTHTCPPCPAPELLGGPSVFLFPPKPKDTLYITREPEVTCVVVDVSHEDPEVKFNWYVDGVEVHNAKTKPREEQYNSTYRVVSVLTVLHQDWLNGKEYKCKVSNKALPAPIEKTISKAKGQPREPQVYTLPPSRDELTKNQVSLTCLVKGFYPCDIAVEWESNGQPENNYKTTPPVLDSDGSFFLYSKLTVDKSRWQQGNVFSCSVMHEALHNHYTQKSLSLSPGK
light: DIQLTQSPSSLSASVGDRVTITCKASQDVSIAVAWYQQKPGKAPKLLIYSASDRYTGVPSRFSGSGSGTDFTLTISSLQPEDFATYYCQQHYITPLTFGPGTKVEIKRTVAAPSVFIFPPSDEQLKSGTASVVCLLNNFYPREAKVQWKVDNALQSGNSQESVTEQDSKDSTYSLSSTLTLSKADYEKHKVYACEVTHQGLSSPVTKSFNRGEC
modifications: YTE Fc mutations
In turn, B1 registered an HIC peak elution in data set [1] of 24.14 fraction.

B2: ADC 1: αTROP2 (HC:BSM-YTE-S375C) (LC:BSM-Y53D) conjugated to MP-AA-PABC-MMAE (conjugate)
heavy: B1 heavy
light: B1 light
B2: in the data set “UP-SEC aggregation”, the “Purity by UP-SEC” value stood at 96.4%. Further, the “Purity by CE-SDS NR” value in “Non-reducing CE-SDS” was 94.7%. Further, in data set [2] (by MS), the unconjugated antibody entry is “unconjugated antibody (1.2%)”. Besides, in data set [3], the tumor volume entry was “effective at reducing tumor volume”. Besides, in data set [4], the “unconjugated MMAE in the plasma” value is “no detectable”.

B3: αTROP2 (HC: BSM-YTE-S375C-MMAE)(LC: BSM-Y53D) (conjugate)
heavy: B1 heavy
light: B1 light
As to B3, the “% HMW (SEC)” value in the data set “UP-SEC aggregation” (Table 22) and in the data set “UP-SEC aggregation” (Table 23) was 4.33% in each case. Moreover, the DAR in data set [2] (Table 22) and in data set [2] (Table 23) was 1.7 in each case.
